From patent US9878005B2, “Method of promoting wound healing with hyodxia-induced mitogenic factor” (THE JOHNS HOPKINS UNIVERSITY, priority 2003, dated 2018) come the findings set out here.

For experiment [1], the system named is Akt phosphorylation (PI3K/Akt pathway) in RPSM. Nature of the experiment: Western blot for pAkt and Akt in RPSM. To be noted: for inhibition of HIMF-activated Akt phosphorylation: 5 minutes. Format: cell-based, rat. Here is the method:
Western blots. The tissue collection and homogenization were performed as described before^1. HIMF was detected with 1:1000 dilution of the anti-HIMF antibody (raised in rabbit using the peptide CENKVKELLANPANYP (SEQ ID NO: 10) conjugated to keyhole limpet hemocyanin as the antigen) followed by 1:3000 dilution of goat anti-rabbit HRP-labeled antibody (BioRad, Hercules, Calif.). The specificity of the anti-HIMF antibody was preliminarily characterized with peptide competition. The peptide used as the immunogen blocked only the HIMF band and had no effect on the nonspecific bands. For phospho-Akt (pAkt) and Akt blots, RPSM were lysed in CelLytic-M (Sigma, St. Louis, Mo.) supplemented with 1 mM PMSF and 1:100 of protease inhibitor cocktail, phosphatase inhibitor cocktail 1 and 2 (Sigma, St. Louis, Mo.). 18 μg of protein in equal volume was subjected to electrophoresis in 4-20% polyacrylamide gel (BioRad, Hercules, Calif.). After transfer to nitrocellulose membrane, the membrane was first probed with anti-pAkt1/2/3(Thr308)(1:500, (Santa Cruz Biotechnology, Santa Cruz, Calif.). Then it was stripped and reprobed with anti-Akt1/2/3 (1:500, (Santa Cruz Biotechnology, Santa Cruz, Calif.).

Experiment [2] deals with rat pulmonary microvascular smooth muscle cells (RPSM). Nature of the experiment: 3H-thymidine incorporation assay (RPSM proliferation). Format: cell-based. Conditions: for inhibition of serum-induced RPSM proliferation: preliminary experiments. The text has this:
Cell culture and ^3H-thymidine incorporation assays. Rat pulmonary microvascular smooth muscle cells (RPSM) were isolated from male Sprague-Dawley rats (150-200 g) according to a published method2. Briefly, after the pulmonary artery was flushed with phosphate buffered saline (PBS), it was infused with 2% iron oxide suspension in 0.5% agar. The air spaces were filled with agar, the subpleural margins were harvested and partially collagenase digested, and the microvessels were separated magnetically. The identity of RPSM was confirmed by characteristic appearance on phase-contrast microscopy and indirect immunofluorescent antibody staining for smooth muscle-specific isoforms of […] and myosin heavy chain. RPSM were grown in DMEM/F12 medium supplemented with 10% fetal bovine serum (FBS), 2 mM of glutamine, […] of penicillin and 100 μg/ml of streptomycin. Passage 3 to 5 cells were used in the experiments.
The cells were seeded in 24-well plates at 5×10^4/well. After synchronization with serum-free DMEM/F12 (supplemented with 1% Bovine serum albumin (BSA)) for 24 to 48 hours, the cells were treated with the specified agents and 0.1 μCi/well (or 1 μCi/well) of 3H-thymidine in the serum-free DMEM/F12 for 48 hours. After the experimental protocol was completed, the cells were rinsed with PBS twice and incubated in 10% TCA for 30 min. The cells were then washed with PBS two more times and lysed in 250 μl of the lysis buffer (1% SDS, 0.8% NaOH). 3H-thymidine incorporation was measured with a Beckman 6500 scintillation counter in 10 ml of scintillation cocktail.

The subject of another experiment is pulmonary vasculature. Nature of the experiment: Intact chest mouse experiment. Format: in vivo. Conditions: intravenous injection. Here is the method:
Intact chest mouse experiment. The animals were ventilated with 95% O2/5% CO2 and 2% isoflurane using a custom-designed, constant-flow mouse ventilator with tidal volume set to 6.7 ml/kg at 140 breaths/min. A femoral artery was cannulated for the measurement of systemic arterial pressure, which was measured with a Viggo-Spectramed transducer attached to a polygraph (Grass Instruments, model 7). Heart rate was determined from the systolic pressure pulses with a tachometer (Grass, model 7P44A), and the left jugular vein was cannulated for the administration of drugs. The animals were strapped in the supine position to a fluoroscopic table, and PAP was measured with a specially designed murine pulmonary arterial catheter attached to a pressure transducer (Schneider/Namic). Mean PAP was derived electronically, and pulmonary arterial wedge pressure was determined by recently described procedures^6. Cardiac output was measured by the thermodilution technique by injection of a known volume (20 μl) of 0.9% NaCl solution at 23° C. into the right atrium and measurement of blood temperature changes in the root of the aorta with a cardiac output computer (Cardiotherm 500, Columbus Instruments, Columbus, Ohio) equipped with a small-animal interface. A thermistor microprobe (Columbus Instruments, Fr-1) was inserted into the right carotid artery and advanced to the aortic arch, where changes in aortic blood temperature were measured.

The subject of experiment [3] is vascular tube formation in the Matrigel plug. Put plainly: Matrigel plug assay in vivo. Further details: species or system mouse. Conditions: HIMF 50 nM final, subcutaneous, 7 days; FLAG control 4.3±0.84; n=3, P<0.001. As to the method:
Matrigel plug assays: 200 μl of Matrigel mixed with FLAG or HIMF (50 nM final) was injected subcutaneously (n=3 for each group) on the back of mice. Mice were sacrificed after 7 days and the Matrigel plugs collected. Following fixation in 4% paraformaldehyde in PBS ([…], pH 7.4), 10 μm frozen sections were cut and stained either with hemotoxylin and eosin (HE) or von Willebrand factor (vWF). For the detection of vWF, anti-human vWF (1:250 dilution, Dako) and anti-rabbit IgG conjugated with FITC (1:500 dilution) were used. The positive cells were counted and expressed as cell numbers per 20× field.

The subject of experiment [4] is Akt phosphorylation in L2 cells. Nature of the experiment: Akt phosphorylation in L2 cells (HIMF isolation vs mock isolation). Format: cell-based. As to the method: Recombinant HIMF. The C-terminal tagged HIMF was generated by PCR and inserted into pcDNA5/FRT/TO vector using the EcoR V and Xho I restriction sites. The pcDNA5/FRT/TO vector containing the recombinant HIMF gene was then integrated in a Flp recombinase-dependent manner into the genome of the Flp-In™ T-REx™ 293 cell line using the Flp-In™ T-REx™ kit from Invitrogen (Carlsbad, Calif.). Production of recombinant HIMF was induced by tetracycline (1 μg/ml) in the 293 cells maintained in DMEM supplemented with 5% FBS, 2 mM of glutamine, 100 U/ml of penicillin and 100 μg/ml of streptomycin, 100 μg/ml of hygromycin B, and 7.5 μg/ml of blasticidin. HIMF was purified by anti-FLAG M2 antibody agarose (Sigma, St. Louis, Mo.) column chromatography from the 293 cell culture medium with FLAG (0.1 mg/ml) elution. The concentration of the HIMF protein was estimated semi-quantitatively by silver staining after SDS-PAGE using BSA as the standard. […] Therefore, the recombinant protein has 96 amino acids and has a calculated molecular weight of 10,444 Da. […] To exclude the role of possible contaminants such as insulin, a mock isolation control experiment was performed. The medium obtained from the control TREx-293 cell culture was used for the mock isolation. […]

`O=c1c(-c2ccc(O)cc2)coc2cc(O)cc(O)c12` [Genistein, reference compound]: the “inhibition of HIMF-activated Akt phosphorylation” value in experiment [1] (inhibitor 20 μmol/L, HIMF 5×10^−8 mol/L) is “did not inhibit”. Moreover, the “inhibition of serum-induced RPSM proliferation” value in experiment [2] is reported as “inhibit”.
Regarding `O=C(Nc1cc(C(=O)Nc2ccc(S(=O)(=O)[O-])cc2S(=O)(=O)[O-])cc(C(=O)Nc2ccc(S(=O)(=O)[O-])cc2S(=O)(=O)[O-])c1)Nc1cc(C(=O)Nc2ccc(S(=O)(=O)[O-])cc2S(=O)(=O)[O-])cc(C(=O)Nc2ccc(S(=O)(=O)[O-])cc2S(=O)(=O)[O-])c1.[Na+].[Na+].[Na+].[Na+].[Na+].[Na+].[Na+].[Na+]` [NF449, reference compound], in experiment [1] (inhibitor 50 μmol/L, HIMF 5×10^−8 mol/L), the “inhibition of HIMF-activated Akt phosphorylation” value was “did not inhibit”. The “inhibition of serum-induced RPSM proliferation” value in experiment [2] was “inhibit”.

B1: HIMF: hypoxia-induced mitogenic factor; recombinant C-terminal FLAG-tagged protein of 96 amino acids purified from 293 cell culture medium (protein, UniProt Q9EP95 24-111, looked up)
Resistin-like alpha: DETIEIIVENKVKELLANPANYPSTVTKTLSCTSVKTMNRWASCPAGMTATGCACGFACGSWEIQSGDTCNCLCLLVDWTTARCCQLS
modifications: C-terminal FLAG tag
notes: hypoxia-induced mitogenic factor; recombinant C-terminal FLAG-tagged protein of 96 amino acids purified from 293 cell culture medium
As to B1, in experiment [1] (HIMF 5×10^−8 mol/L), the “Akt activation sustained through” value was at least 60 min, the “activation of phosphorylation of Akt” value is on record as “strongly activated” and the “time of peak Akt activation (phosphorylation)” value was 5 min. Besides, the “activation of Akt by the recombinant protein” value in experiment [1] (preliminary experiments) is given as “activated”. For the same molecule, in the experiment on pulmonary vasculature, the “pulmonary arterial pressure (PAP)” value is reported as “increased”; the “pulmonary vascular resistance (PVR)” value is reported as “increased”; the “pulmonary vasoconstrictor potency versus endothelin-1, angiotensin II, or serotonin (molar dose-response curves)” value is given as “more potent”. In addition, the “proliferation of RPSM (3H-thymidine incorporation)” value in experiment [2] (HIMF 3.3×10^−9 to 3.3×10^−8 mol/L) was “dose-dependently increased”. The “vascular tube formation in the Matrigel plug” value in experiment [3] is 17.7±1.37 /×20 field. In addition, the “Akt phosphorylation in L2 cells” value in experiment [4] (HIMF isolation, mock isolation had no effect) is reported as “stimulated”. In experiment [4] (L2 cells, preliminary experiments), the “activation of Akt by the recombinant protein” value is “activated”.
